Laboratory results: the nanobody polyreactivity screen of Harvey et al. (2022)

Experiment: yeast display, Sf9 membrane polyspecificity reagent, FACS + sequencing; frameworks hold sequencing errors
Outline: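 Sorting gates, low and high (top ~1%), were placed on anti-HA fluorescence to track expression and on streptavidin fluorescence to track reagent binding. A clone's polyreactivity label is taken from the gate it came out of. The reagent was 10% biotinylated, detergent-solubilized Sf9 membrane, applied for 1 hour at 4 °C to galactose-induced yeast display cells.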

Sequence	polyreactivity (PSR sort gate)
QVQLVESGGGLVQAGGSLRLSCAASGSTFGSYTMGWYRQAPGKERELVAAINWSGGNTYYADSVKGRFTISRDNAKNTVYLQINSLKPEDTAVYYCAAAFYIYGVEGDYWGQGTQVTVSS	low polyreactivity
QVQLVESGGGLLQAGGSLSLICAASGFSIYKNAMGWYSQAPGKERELVAAITSSGGYTYYADSVKGRFTISRDNAKNTVYLQMNILKPEDTAVYYCAGSPQAYIADYDYWGQGTQVTVSS	low polyreactivity
QVQLVESGGGLVQAGGSLRLSCAASGFTFTRYAMGWYRQAPGKERELVATITKRGGSTYYADSVKGRFTISRDNAKNTVYLQMNSLKPEDTAVYYCAADGASRALYDFWGQGTQVTVSS	high polyreactivity
QVQLVESGGGLVQAGGSLRLSCAASGISFSANAMGWYRQAPGKEREWVAAISASGGSTRYADSVKGRFTISRDNAKNTVYLQMNSLKPEDTAVYYCATRRTSRSKWRHYWGQGTQVTVSS	high polyreactivity
QVQLEESGGGLVQAGGSLRISCAASGITFDDYDMGWYRQAPGKERELVAAITWSGGSTYYADSVKGRFTSSRDNAKNTVYLQMNSLKPEVTAVSYCNAGSTWAYSYPVGKSDLDYWGQGTQVTVSS	low polyreactivity
QVQLVESGGGLVQAGGSLRLSCAASGSTFVLYAMGWYRQAPGKERELVATISSGGSTYYADSVKGRFTISRDNAKNTVYLQMNRLKPEDTAVYYCAASYSRFVDWIGDPGYDYWGQGTQVTVSS	low polyreactivity
QVQLVESGGGLVQAGGSLRLSCAASGSIFPYYAMGGYRQAAGKERELVATITSRGGSTDYADYVKGRFTISRDNAKNTVYLQMNSLKREDTAVYYCAKEYRYYRRRYDYWGQGTQVTVSS	high polyreactivity
QVQLVESGGGLVQAGGSLRLSCAASGRIFYYNAMGWYRQAPGKERELVAAISWDGGSTYYADSVKGRFTISRDNAKNTVYLQMNSLKAEDTAVYYCAVDLYGTWYPTWFNYWGQGTQVTVSS	low polyreactivity
QVQLVESGGGLDQAGGSLRLSCAASGRIFVGYARGWYRQAPVKERELVASITGRGTSTYYADSVKGRFTISRDNAKNTVYLQMNSLKPEDTAVYYCNALYRKYRNQWYISNYGYYYWGQGTQVTVSS	low polyreactivity
QVQLVESGGGLVQAGGSLRLSCAASGRIFAYYAMGWYRQAPGKERELVAAISSSGVSTSYADSVKGRFTISRDNAKNTVYLQMNSLKPEDTAVYYCAASPGGRPYFNHDSWGQGTQVTVSS	low polyreactivity
QVQLVESGGGLVQAGGSLRLSCAASGFTFERYTMGWYRQAPGKERELVATISRRSGRTSYADSVKGRFTISRDNAKNSVYLQMNSLKPEDTAVYYCAVDDAYPDRYDYWGQGTQVTVSS	high polyreactivity
QVQLVESGGGLVQAGGSLRLRCAASGFTFTRYAMGWYRQAPGKERELVAVITSTAGSTYYADSVKGRFTISRDNAKNTVYLQMNSLKPEDTAVYYCAAESLVHGDVTLEEVVAQSYDYWGQGTQVTVSS	low polyreactivity
QVQLVESGVGLVQAGGSLRLICGASGFTFDYNSMVWYRQAPGKERELVAAISASGGSTYYADSVKGRFTISRDNAKNTVYLQMKSLKPEDTAVYYCNAGRVTRRDTFDYWGQGTQVTVSS	high polyreactivity
QVQHVESGGGLVQAGGSLRLSCAASGIISYKNVMGWYRQAPGKERELVAAISGRGGSTYYADSVKGRFTISRDNAKNTVYLQMNSLKPEDTAVYYCAKYPGISGYNYWGQGTQVTVSS	high polyreactivity
QVQLVESGGGLVQAGGSHRLSCAASGRIFGTYTMGWYRHAPGKERELVASIRFGGSTYYADSVKGRYTISRDNAKNTVYLQMNSLKPEDTAVYYCNRVYGYNRRYGYWGQGTQVTVSS	high polyreactivity
QVQLVESGGGLVQAGGSLRLRCAASGRIFGRNAMGWYRQAPGKERELVATISSGDTTDYADSVKGRFTISRDNAKNTVYLQMNSLKPEDTAVYYITIYNYWGQGTQVTVSS	low polyreactivity
QVQLVESGGGLVQAGGRLRLSCAASGRTFGINAMGWYRQEPGKERELVASISSGGRTNYADSVKGRFTISRHNAKNTVYLQMNSLKPEDTAVYYCARSRLGRAYGRYDYWGQGTQVTVSS	low polyreactivity
